Paper PMC9405466, “Mechanistic Insight into the Enzymatic Inhibition of β-Amyrin against Mycobacterial Rv1636: In Silico and In Vitro Approaches” (Biology, 2022)

Columns and labels:
[1] = test system: Nc1ncnc2c1ncn2[C@@H]1O[C@H](COP(=O)(O)OP(=O)(O)OP(=O)(O)O)[C@@H](O)[C@H]1O; test: purified protein; settings: 50 mM Tris pH 8.0, 10 mM MgCl2, 1 mM DTT, 0-80 µM ATP, 5 µM Rv1636, 1 h
Rv1636 [2] = target: T1, Rv1636 (Mycobacterium tuberculosis, UniProt P9WFC9); test: isothermal titration calorimetry (VP-ITC), one-site model; type: binding; settings: read-out: Ka1 (converted)
T1 sequence (P9WFC9 whole entry, looked up): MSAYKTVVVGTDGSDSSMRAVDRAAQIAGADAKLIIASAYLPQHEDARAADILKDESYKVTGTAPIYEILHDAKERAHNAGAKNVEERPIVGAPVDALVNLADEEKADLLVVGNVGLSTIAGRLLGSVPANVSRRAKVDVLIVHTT
Source text: isothermal titration calorimetry (VP-ITC), one-site model on Rv1636

Rv1636 [3] = target: T1, Rv1636; test: malachite green ATPase inhibition assay; type: biochemical; settings: ATP as substrate; TMD buffer pH 8.0, 10 mM MgCl2

Molecule	Km [1]	kcat [1]	Kd (Rv1636 [2])	ATPase activity (Rv1636 [3])
Rv1636 (Mycobacterium tuberculosis H37Rv)	5.187 ± 0.281 µM	0.000883 ± 1.7e-05 s⁻¹		
CC1(C)CC[C@]2(C)CC[C@]3(C)C(=CC[C@@H]4[C@@]5(C)CC[C@H](O)C(C)(C)[C@@H]5CC[C@]43C)[C@@H]2C1 [β-Amyrin]			17.8 µM	in the presence of an increasing concentration of β-Amyrin, the result showed a consistent reduction
